Assay results: patent publication US20030041342

Target: maize CDK (cyclin-dependent protein kinase) from immature ear extract

B1: GST-ZMWEE1 (glutathione S-transferase ZMWEE1 fusion protein, from pGEX2Tzmwee1, made in E. coli) (protein)
chain: CTPDYITPEMPQVANEFDDDDKENIPCPKSPEKSANPRSKRYRTDCSPKAREVTDFSFDHQITPVLFDSLTRDDSEEEQPKQPALEKRGGYVSQSAVALRCRVMPPPCVKNPYLNTDPCIDAAVYGGRQCNSAVFSPSIGGNGLSRYRTDFHEIEKIGYGNFSVVFKVLNRIDGCLYAVKRSIKQLHNDMERRQAVKEVQAMAALGSHENIVRYFTSWFENEQLYIQMELCDRCLSMNRNQPVKRGEALELLYQICKGLDFMHERGIAHLDVKPDNIYVRNGIYKLGDFGCATLVNRSLAIEDGDSRYMPPEMLNDKYEHLDKVDIFSLGAAVYELIRGTPLPESGSHFTSIREGKIALLPGCPMQFQSLIKSMMDPDPVRRPSAKEILRHPSFDKLHKASSK
For B1, the “CDK activity (histone H1 kinase activity) of CDK adsorbed by p13^suc1” value was “GST-ZMWEE1, with or without pre-incubation, inhibited CDK activity” and the “histone H1-kinase activity in crude immature ear extract” value was “GST-ZMWEE1 inhibits the histone H1-kinase activity in the extract”.
